Measurements reported in article PMC7870818, “SPRTN protease-cleaved MRE11 decreases DNA repair and radiosensitises cancer cells”.

What was measured:
[1] = target: T1, FL-MRE11 (human, UniProt P49959 1-708); assay: fluorescence polarization; no metal listed in buffer; apparent Kd, n=1; 10 mM Tris pH 8.0, 25 mM NaCl, 0.1% Tween20, 2 mM DTT; 10 nM DNA; temperature not stated, measured immediately; conditions: protein: recombinant; tags: His tag (pNIC28-Bsa4), TEV protease treated; chain copies: 2; label: 5' FITC on TP423; 34 bp duplex (S1[1-34] with S2[1-34]); 3' overhangs 16 nt (S1) and 15 nt (S2)
T1 sequence: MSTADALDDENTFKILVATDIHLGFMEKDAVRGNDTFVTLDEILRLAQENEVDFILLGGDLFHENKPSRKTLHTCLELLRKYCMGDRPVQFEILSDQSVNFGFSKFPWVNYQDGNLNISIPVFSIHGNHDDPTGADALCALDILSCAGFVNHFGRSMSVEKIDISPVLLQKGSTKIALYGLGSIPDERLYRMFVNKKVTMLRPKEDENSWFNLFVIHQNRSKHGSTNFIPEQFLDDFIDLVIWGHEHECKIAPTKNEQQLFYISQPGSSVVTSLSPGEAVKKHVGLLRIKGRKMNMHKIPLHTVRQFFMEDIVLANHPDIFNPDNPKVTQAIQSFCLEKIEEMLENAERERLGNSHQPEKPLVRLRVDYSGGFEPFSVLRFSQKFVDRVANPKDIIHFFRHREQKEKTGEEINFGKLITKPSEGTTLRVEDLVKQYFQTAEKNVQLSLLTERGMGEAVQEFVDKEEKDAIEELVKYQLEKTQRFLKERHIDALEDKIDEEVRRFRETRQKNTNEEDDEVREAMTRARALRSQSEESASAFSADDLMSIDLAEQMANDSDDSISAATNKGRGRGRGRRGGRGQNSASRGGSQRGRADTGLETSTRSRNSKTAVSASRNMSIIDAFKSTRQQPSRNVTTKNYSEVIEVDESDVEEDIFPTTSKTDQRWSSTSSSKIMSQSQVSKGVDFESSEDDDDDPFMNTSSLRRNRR

[2] = target: T2, TR-MRE11 (human, UniProt P49959 1-568, del569-708); assay: fluorescence polarization; no metal listed in buffer; apparent Kd, n=1; 7-fold lower affinity than FL; 10 mM Tris pH 8.0, 25 mM NaCl, 0.1% Tween20, 2 mM DTT; 10 nM DNA; temperature not stated, measured immediately; conditions: protein: recombinant; tags: His-SUMO tag removed by SUMO protease; chain copies: 2; label: 5' FITC on TP423; 34 bp duplex (S1[1-34] with S2[1-34]); 3' overhangs 16 nt (S1) and 15 nt (S2)
T2 sequence: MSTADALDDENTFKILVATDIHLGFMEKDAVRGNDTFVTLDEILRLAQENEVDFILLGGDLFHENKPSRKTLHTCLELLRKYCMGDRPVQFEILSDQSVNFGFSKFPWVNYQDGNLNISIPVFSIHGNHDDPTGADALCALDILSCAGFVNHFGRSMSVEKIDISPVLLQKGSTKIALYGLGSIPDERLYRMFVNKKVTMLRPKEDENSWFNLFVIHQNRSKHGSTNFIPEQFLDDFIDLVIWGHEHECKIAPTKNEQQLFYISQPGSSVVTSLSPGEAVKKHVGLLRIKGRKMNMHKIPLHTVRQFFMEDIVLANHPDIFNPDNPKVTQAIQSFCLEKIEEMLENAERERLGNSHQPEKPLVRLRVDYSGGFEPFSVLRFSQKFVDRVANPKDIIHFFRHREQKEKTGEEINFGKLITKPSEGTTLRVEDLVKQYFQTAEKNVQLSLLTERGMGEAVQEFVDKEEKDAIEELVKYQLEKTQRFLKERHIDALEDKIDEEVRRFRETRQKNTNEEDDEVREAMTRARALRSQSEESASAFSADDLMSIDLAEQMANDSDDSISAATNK

B1: TP423/TP424 3'-overhang duplex (dsDNA)
DNA 1: CTGCAGGGTTTTTGTTCCAGTCTGTAGCACTGTGTAAGACAGGCCAGATC
DNA 2: CACAGTGCTACAGACTGGAACAAAAACCCTGCAGTACTCTACTCATCTC
Kd [1]: 34.6 nM
Kd [2]: 242 nM
